Among the data in article PMC9154745 are logEC50 of half-maximal inhibition of FSK-stimulated cAMP in CHO-hCB2 cells (bell-shaped dose-response curve, two independent experiments) values, retold here.

For the test, the target named is human cannabinoid receptor type 2 (CB2) (human) (UniProt P34972).
Chain of UniProt P34972 (P34972 whole entry): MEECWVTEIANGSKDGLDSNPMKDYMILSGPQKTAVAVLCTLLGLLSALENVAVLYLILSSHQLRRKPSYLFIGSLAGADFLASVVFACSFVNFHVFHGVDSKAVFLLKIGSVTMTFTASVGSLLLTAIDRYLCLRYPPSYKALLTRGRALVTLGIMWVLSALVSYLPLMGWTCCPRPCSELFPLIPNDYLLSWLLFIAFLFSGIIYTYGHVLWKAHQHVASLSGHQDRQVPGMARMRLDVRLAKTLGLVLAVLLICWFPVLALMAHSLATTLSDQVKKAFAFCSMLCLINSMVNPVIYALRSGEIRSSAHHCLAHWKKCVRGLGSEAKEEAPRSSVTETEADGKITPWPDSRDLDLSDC

As to “osteogenic growth peptide (OGP), the 5-amino-acid cellular activator derived from OGP(1-14) (from UniProt P62805 99-103)”, the logEC50 of half-maximal inhibition of FSK-stimulated cAMP in CHO-hCB2 cells (bell-shaped dose-response curve, two independent experiments) was -12.1.
